Source: patent publication US20230071609A1 (Genentech, published 2023)

B1: antibody 3.3F7 (antibody, V domains shown)
VH: QVQLKQSGPSLVQPSQSLSITCTVSGFSLTTYGVHWVRQSPGKGLEWLGVIWRGGNTDYNAAFMSRLSITKDNSQSQVFFKMNSLQADDTAIYYCAKSSYGYHYTMDYWGHGTSVTVSS
VL: DIVVTQSHRFMSTSVGDRVIITCKASQNVGTAVAWYQQKPGQSPKLLIYWASTRHTGVPDRFTGSGSGTDFTLTISNVQSEDLADYFCQRYNNFPFTFGSGTKLEIKR
notes: Mouse mAb, cloned as murine IgG2a LALAPG
B2: antibody 3.7F5 (antibody, V domains shown)
VH: EIHLQQSGPEVVQPGASLKVSCKASDYSFTDYNVFWVKQSHGKSLEWIAYIDPYNGATSYNQKFKDKATLTVDKSSSTAFMYLNSLTSEDSAVYYCARGTVRAFFDSWGQGTTLTVSS
VL: DIVMSQSPSSLVVSVGEKVSLSCKSSQSLLYRNDQINYLAWYQQKPGQSPKLLIFWASTRESGVPVRFTGSGSGTDFTLNINTVKAEDLAVYYCQQYYSYPPTFGTGTKLEIKR
notes: Mouse mAb, cloned as murine IgG2a LALAPG; also called conformational antibody 3.7F5

Columns and labels:
[1] = molecular target: T1, gD-iAPOL1-GPI (construct b, aa 61-398) (human, UniProt O14791 61-398, C-terminal GPI anchor); test: flow cytometry, live CHO cells, 5 µg/ml; conformational = only bound to full length APOL1
T1 construct: Stably expressed on CHO cells under a doxycycline-inducible promoter; also called gD-APOL1-GPI; gD-APOL1-G0-GPI
T1 sequence: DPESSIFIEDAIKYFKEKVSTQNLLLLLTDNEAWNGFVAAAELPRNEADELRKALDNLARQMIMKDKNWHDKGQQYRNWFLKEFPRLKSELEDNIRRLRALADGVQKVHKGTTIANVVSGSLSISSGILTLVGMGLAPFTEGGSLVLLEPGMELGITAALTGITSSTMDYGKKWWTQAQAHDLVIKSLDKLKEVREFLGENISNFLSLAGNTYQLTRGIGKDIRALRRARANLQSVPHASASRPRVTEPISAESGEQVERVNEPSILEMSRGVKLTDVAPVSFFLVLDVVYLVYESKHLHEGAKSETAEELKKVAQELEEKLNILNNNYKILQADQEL
Procedure: Stably transfected live (not fixed or permeabilized) CHO cells expressing the gD-iAPOL1-GPI constructs indicated in FIGS. 1A-1E after induction with 5 μg/ml dox for 48 h, showing differential antibody binding at 5 μg/ml. […] White histograms are Alexa488 anti-mouse or anti-rabbit secondaries only; grey histograms are the anti-APOL1 signals. A representative histogram for each category is shown: 3.7D6 for PFD; 3.3A8 for C-terminus of MAD, 3.5H9 for N-terminus of MAD; 3.1C1 for SRA-ID; 3.2D4 for multi-domain; 3.3F7 for conformational and 3.5B10 for FACS-negative (FACS-ve). The prefix 3 in the name of the antibodies denotes murine monoclonals from Method #3 (as shown in Example 1 below); other antibodies (not illustrated here) starting with the number 4 are murine monoclonals derived from mice additionally boosted with SRA-ID protein; and prefix 5-named antibodies are rabbit monoclonals from Method #5 (Table 2A; and Example 2). […] The Sigma polyclonal (HPA018885, raised to aa 263-387) and the Epitomics rabbit monoclonal (EPR2907(2), raised to an undisclosed peptide) are SRA-ID binders. […]
Cells were harvested with 5 mM EDTA in PBS, washed once with growth media and twice with PBS. […] Signals were read in a FACSCalibur3 (Becton Dickinson), with the exception of FIG. 8A and FIG. 14, which used a FACSCelesta, and data was analyzed using FlowJo v8.4.5.

[2] = molecular target: T2, gD-PFD-MAD-GPI (construct c) (human, UniProt O14791 61-305, C-terminal GPI anchor); test: flow cytometry, live CHO cells; conformational = only bound to full length APOL1, but not individual domains
T2 sequence: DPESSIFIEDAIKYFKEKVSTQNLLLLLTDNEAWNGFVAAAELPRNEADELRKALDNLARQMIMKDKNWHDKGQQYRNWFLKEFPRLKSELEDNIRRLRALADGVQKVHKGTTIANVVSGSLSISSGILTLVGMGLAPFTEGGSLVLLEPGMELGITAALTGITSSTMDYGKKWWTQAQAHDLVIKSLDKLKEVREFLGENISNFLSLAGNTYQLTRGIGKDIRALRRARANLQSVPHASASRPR
Procedure: (§1) Stably transfected live (not fixed or permeabilized) CHO cells expressing the gD-iAPOL1-GPI constructs indicated in FIGS. 1A-1E after induction with 5 μg/ml dox for 48 h, showing differential antibody binding at 5 μg/ml. […] White histograms are Alexa488 anti-mouse or anti-rabbit secondaries only; grey histograms are the anti-APOL1 signals. A representative histogram for each category is shown: 3.7D6 for PFD; 3.3A8 for C-terminus of MAD, 3.5H9 for N-terminus of MAD; 3.1C1 for SRA-ID; 3.2D4 for multi-domain; 3.3F7 for conformational and 3.5B10 for FACS-negative (FACS-ve). The prefix 3 in the name of the antibodies denotes murine monoclonals from Method #3 (as shown in Example 1 below); other antibodies (not illustrated here) starting with the number 4 are murine monoclonals derived from mice additionally boosted with SRA-ID protein; and prefix 5-named antibodies are rabbit monoclonals from Method #5 (Table 2A; and Example 2). […] The Sigma polyclonal (HPA018885, raised to aa 263-387) and the Epitomics rabbit monoclonal (EPR2907(2), raised to an undisclosed peptide) are SRA-ID binders. Successful APOL1 surface expression of each construct was confirmed with the anti-gD epitope tag (gD-tag) antibody (to Herpes Simplex Virus glycoprotein D).
(§2) Cells were harvested with 5 mM EDTA in PBS, washed once with growth media and twice with PBS. Approximately 0.5×10⁶/m1 of cells resuspended in PBS were incubated with anti-APOL1 antibodies for 1 h on ice. Following two PBS washes, 2 μg/ml of Alexa488 anti-mouse or anti-rabbit (Invitrogen A11029 and A21206, respectively) was used for 1 h on ice for detection. Cells were washed twice in PBS and resuspended in PBS with 1 μg/ml propidium iodide. Signals were read in a FACSCalibur3 (Becton Dickinson), with the exception of FIG. 8A and FIG. 14, which used a FACSCelesta, and data was analyzed using FlowJo v8.4.5.

[3] = molecular target: T3, gD-MAD-SRA-ID-GPI (construct d) (human, UniProt O14791 238-398, C-terminal GPI anchor); test: as above
T3 sequence: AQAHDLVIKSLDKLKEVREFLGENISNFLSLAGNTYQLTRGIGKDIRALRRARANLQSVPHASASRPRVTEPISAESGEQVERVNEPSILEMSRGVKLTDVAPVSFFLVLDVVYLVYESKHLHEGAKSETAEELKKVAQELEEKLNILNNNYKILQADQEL
Procedure: as §1, §2

[4] = molecular target: T4, gD-SRA-ID-GPI (construct e) (human, UniProt O14791 305-398, C-terminal GPI anchor); test: as above
T4 sequence: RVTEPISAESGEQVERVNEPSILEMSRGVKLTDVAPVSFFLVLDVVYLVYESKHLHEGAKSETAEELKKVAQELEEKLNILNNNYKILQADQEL
Procedure: as §1, §2

[5] = molecular target: T5, circulating APOL1 in normal human serum (human, UniProt O14791 28-398); test: immunoprecipitation from normal human serum with Dynabead-conjugated antibody
T5 construct: mature; Serum of healthy volunteers; lipoprotein-associated; also called serum APOL1; HDL APOL1
T5 sequence (looked up): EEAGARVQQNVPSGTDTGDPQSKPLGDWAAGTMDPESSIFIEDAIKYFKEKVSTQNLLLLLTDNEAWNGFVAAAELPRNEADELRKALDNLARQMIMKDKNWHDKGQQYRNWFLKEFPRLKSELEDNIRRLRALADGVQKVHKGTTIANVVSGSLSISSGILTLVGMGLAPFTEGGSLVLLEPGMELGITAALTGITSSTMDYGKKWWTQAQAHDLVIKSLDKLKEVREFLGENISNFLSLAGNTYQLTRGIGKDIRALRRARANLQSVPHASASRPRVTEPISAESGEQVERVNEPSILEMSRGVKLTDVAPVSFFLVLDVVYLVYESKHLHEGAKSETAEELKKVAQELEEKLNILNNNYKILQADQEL
Procedure: FIGS. 17A-17C show immunoprecipitation of APOL1 from NHS with a different set of APOL1 antibodies. FIG. 17A show as in FIG. 5D that all the blocking antibodies could immunoprecipitate APOL1, except the conformational antibody 3.7F5 (SEQ ID NOS: 203-212), which is also a poor blocker.
Anti-APOL1 antibodies were conjugated to Dynabeads (ThermoFisher 14311D) as per the manufacturer's protocol. Briefly, 10 μg of each antibody was conjugated to 2 mg of Dynabeads overnight at 37° C. with rotation. Next day, unbound antibody was washed off and conjugated antibody was resuspended at a final concentration of 50 μg/ml. 2-5 μg of the conjugated antibody was incubated with 1 μl of undiluted human serum at 4° C. for 16 h in a total volume of 500 μl with PBS. Unbound serum was washed with 150 mM NaCl in PBS. Bound APOL1 was eluted with low pH glycine buffer (this was preferable to direct boiling to avoid elution of non-specifically bound proteins). Eluates were boiled in 5× sample buffer (Invitrogen 39000) and loaded on 4-12% Bis-Tris gels (Invitrogen NP03220). Immunoprecipitated APOL1 was detected by rabbit polyclonal APOL1 antibody (Proteintech 11486-2-AP, 1:1000) and ECL. APOA1 was detected with goat anti-APOA1 (Rockland 600-101-109), HPR was detected with 1 μg/ml rabbit anti-HPR (Millipore ABS 196) and ECL Prime. […]

Row | Binder | binding result [1] | binding result [2] | binding result [3] | binding result [4] | binding result [5]
1 | B1 | binds | no binding (tested: 5 µg/ml) | no binding (tested: 5 µg/ml) | no binding (tested: 5 µg/ml) | 
2 | B2 |  |  |  |  | no binding
